Results taken from patent US20230020546A1, “APPLICATION OF PROGESTIN IN PREPARATION OF DRUG INHIBITING CYTOKINE STORM” (SHENZHEN EVERGREEN THERAPEUTICS CO., LTD., priority 2020, published 2023).

Columns and labels:
hu-SCID mice [1] = test: Rectal temperature after antibody injection in hu-SCID mice; format: in vivo
[2] = tested on: circulating cytokines in hu-SCID mice; test: Circulating cytokines in plasma of hu-SCID mice after OKT3 injection (multiplex immunoassay); format: in vivo; conditions: for Inhibition of OKT3-induced immune (cytokine) storm in an animal model: hu-SCID mice, overall conclusion; for IFN-γ Concentration / IL-1β Concentration / IL-2 Concentration / IL-4 Concentration / IL-5 Concentration / IL-6 Concentration / IL-10 Concentration / TNF-α Concentration: OKT3 10 μg IP alone
Protocol: […] A multiplex immunoassay system was then applied to the collected heparinized plasma to analyze cytokines. Cytokines measured included human IL-1β, IL-2, IL-4, IL-5, IL-6, IL-10, IL-12 (p70), IL-13, IL-17, IFN-γand TNF-α. […] The activation markers thereof were then analyzed by flow cytometry. Human peripheral blood mononuclear cells in the mouse spleen were blocked with 2.4G2 and then stained with fluorescently labeled CD69, CD25, CD45 and CD3.
After antibody injection, in order to determine if a cytokine storm was induced, we detected cytokines (human IL-1β, IL-2, IL-4, IL-5, IL-6, IL-10, IL-12 (p70), IL-13, IL17, IFN-γ and TNF-α) in the plasma of the hu-SCID mice.
On days 8 and 9 after intravenous injection of PBMCs in humanized mice (48 hours and 24 hours before antibody injection), a candidate drug PR2005 (5 mg/kg) was injected intraperitoneally to the animals. […] The results are detailed in Tables 1-4.

hu-SCID mice [3] = conditions: mouse, in vivo, ip
Protocol: (§1) Each humanized mouse for the test was first intravenously injected with 2×10^7 PBMCs. After 10 days, each mouse was injected with OKT3 or control IgG (2 μg or 10 μg, IV or IP).
(§2) Clinical score measurement: as recommended by the Canadian Council for Animal Care (www.ccac.ca/en /standards/guidelines), we conducted preliminary studies to determine the most appropriate clinical symptoms and scoring criteria. […] Score: 0=normal activity; 1=normal activity, hairs upright, and tiptoe gait; 2=arched back, decreased activity, but there are still activities; 3=too few activities, but there are still activities when prompted; 4=dying. Mice with a clinical score of 4 were sacrificed.

hu-SCID mice [4] = test: Clinical symptoms / clinical score after antibody injection in hu-SCID mice
Protocol: as §1, §2

## CCCCCC(=O)O[C@]1(C(C)=O)CC[C@H]2[C@@H]3CCC4=CC(=O)CC[C@]4(C)[C@H]3CC[C@@]21C [PR2005, hydroxyprogesterone caproate, reference compound]
hu-SCID mice [1]; PR2005 5 mg/kg IP, 48 hours and 24 hours before antibody injection
  Body temperature change after receiving OKT3: no significant changes in body temperature
[2]; PR2005 5 mg/kg IP before OKT3
  Concentration of cytokines in the blood vs animals using OKT3 alone: substantially lower
[2]
  Inhibition of OKT3-induced immune (cytokine) storm in an animal model: can inhibit the OKT3-induced immune storm
[2]; listed as hydroxyprogesterone caproate
  Inhibition of OKT3-induced immune (cytokine) storm in an animal model: can inhibit the cytokine storm

## OKT3: muromonab-CD3 antibody used to induce the cytokine storm in hu-SCID mice
hu-SCID mice [1]; OKT3 2 μg IP, 0 h
  Rectal temperature: 37.7 °C
hu-SCID mice [1]; OKT3 2 μg IP, 1 h
  Rectal temperature: 35.6 °C
hu-SCID mice [1]; OKT3 2 μg IP, 2 h
  Rectal temperature: 34.8 °C
hu-SCID mice [1]; OKT3 2 μg IP, 5 h
  Rectal temperature: 35.4 °C
hu-SCID mice [1]; OKT3 2 μg IP, similar to control human IgG
  Rectal temperature change: moderate changes
hu-SCID mice [1]; OKT3 2 μg IV, 0 h
  Rectal temperature: 37.7 °C
hu-SCID mice [1]; OKT3 2 μg IV, 1 h
  Rectal temperature: 31.7 °C
hu-SCID mice [1]; OKT3 2 μg IV, 2 h
  Rectal temperature: 33.8 °C
hu-SCID mice [1]; OKT3 2 μg IV, 5 h
  Rectal temperature: 34.9 °C
hu-SCID mice [1]; OKT3 2 μg IV, at 1 h, partial recovery after 5 h
  Transient hypothermia (rectal temperature): about 32 °C
hu-SCID mice [1]; OKT3 10 μg IP or IV, within 1 h
  Rectal temperature decrease (from 37° C.): ≤ 32 °C
hu-SCID mice [1]; OKT3 10 μg IP, 0 h
  Rectal temperature: 37.7 °C
hu-SCID mice [1]; OKT3 10 μg IP, 1 h
  Rectal temperature: 31.7 °C
hu-SCID mice [1]; OKT3 10 μg IP, 2 h
  Rectal temperature: 31.1 °C
hu-SCID mice [1]; OKT3 10 μg IP, 5 h
  Rectal temperature: 30.6 °C
hu-SCID mice [1]; OKT3 10 μg IV, 0 h
  Rectal temperature: 37.7 °C
hu-SCID mice [1]; OKT3 10 μg IV, 1 h
  Rectal temperature: 31.9 °C
[2]; OKT3 2 μg IP or IV, any time point
  Induced cytokines: rarely detected
[2]; OKT3 10 μg IP
  Time of TNF-α peak: 1 h
[2]; 1 h
  IFN-γ Concentration: 7015 pg/mL
  IL-1β Concentration: 44.0 pg/mL
  IL-2 Concentration: 39.0 pg/mL
  IL-4 Concentration: 61 pg/mL
  IL-5 Concentration: 72 pg/mL
  IL-6 Concentration: 96 pg/mL
  IL-10 Concentration: 3319 pg/mL
  TNF-α Concentration: 1409 pg/mL
[2]; 2 h
  IFN-γ Concentration: 23574 pg/mL
  IL-1β Concentration: 77.5 pg/mL
  IL-2 Concentration: 75.9 pg/mL
  IL-4 Concentration: 182 pg/mL
  IL-5 Concentration: 98 pg/mL
  IL-6 Concentration: 160 pg/mL
  IL-10 Concentration: 11001 pg/mL
  TNF-α Concentration: 1127 pg/mL
[2]; 5 h
  IFN-γ Concentration: 25783 pg/mL
  IL-1β Concentration: 97.4 pg/mL
  IL-2 Concentration: 89.4 pg/mL
  IL-4 Concentration: 259 pg/mL
  IL-5 Concentration: 158 pg/mL
  IL-6 Concentration: 252 pg/mL
  IL-10 Concentration: 20052 pg/mL
  TNF-α Concentration: 655 pg/mL
[2]; OKT3 10 μg IP, concentrations gradually increased within 5 h
  Induction of cytokines (IL-1β, IL-2, IL-4, IL-5, IL-6, IL-10, IFN-γ): may induce production of multiple cytokines
hu-SCID mice [3]
  Mice dying and sacrificed: one of 5
hu-SCID mice [4]; OKT3 2 μg IP
  Symptom observation: unaffected
hu-SCID mice [4]; OKT3 2 μg IV
  Mice needing to be euthanized: Two of four
hu-SCID mice [4]; OKT3 2 μg IV, within 1 h
  Response (symptoms): moderate to severe
hu-SCID mice [4]; OKT3 10 μg IP
  Clinical score: moderate
hu-SCID mice [4]; OKT3 10 μg IV
  Response (symptoms): severe
hu-SCID mice [4]; OKT3 10 μg IV, at 1 h
  Mice sacrificed: all mice were sacrificed
